Results on four molecules are retold here after patent publication US20090299038A1 (LIVTECH, published 2009).

“And” between values parts separate entries of the source, which are not always exact repeats. Equal entries are not always repeated.

Test [1] addresses T1, hDlk-1 EGF-like motif deletion mutant EGF (4-6) expressed on COS-7 cells (human, UniProt P80370 131-244).
T1 construct: also called hdlk-EGF (4-6)/pME18S-CFHX
T1 sequence: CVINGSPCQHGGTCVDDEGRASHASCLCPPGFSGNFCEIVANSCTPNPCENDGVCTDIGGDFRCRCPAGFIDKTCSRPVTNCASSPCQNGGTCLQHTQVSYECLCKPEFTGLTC
Put plainly: FACS of transfected COS-7 cells.

Test [2] addresses T2, hDlk-1 EGF-like motif deletion mutant EGF (5-6) expressed on COS-7 cells (human, UniProt P80370 170-245).
T2 construct: also called hDlk-1 (EGF 5-6)-pME18-CHFX
T2 sequence: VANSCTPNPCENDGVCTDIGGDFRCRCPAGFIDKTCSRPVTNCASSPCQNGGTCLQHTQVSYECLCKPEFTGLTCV
Put plainly: FACS of transfected COS-7 cells.

In test [3] the target is T3, purified recombinant hFA-1 protein (hDlk-1 extracellular region) (human, UniProt P80370 24-303).
T3 construct: also called human FA1; FA-1 region of hDlk-1; not shown: C-terminal Myc tag and His tag from the pcDNA4/Myc-His vector
T3 sequence: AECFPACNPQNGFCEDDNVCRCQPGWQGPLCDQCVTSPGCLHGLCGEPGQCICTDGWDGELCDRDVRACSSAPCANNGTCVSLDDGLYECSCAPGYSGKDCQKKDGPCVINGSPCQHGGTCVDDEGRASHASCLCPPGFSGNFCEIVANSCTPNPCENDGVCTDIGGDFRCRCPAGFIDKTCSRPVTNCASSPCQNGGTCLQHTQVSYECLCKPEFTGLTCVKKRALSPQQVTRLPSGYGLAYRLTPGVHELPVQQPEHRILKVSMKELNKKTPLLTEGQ
Put plainly: ELISA, antibody dilution series on immobilised hFA-1.

For test [4], the target named is T3, purified recombinant hFA-1 protein …. Kind of test: ELISA method (Djavadi-Ohaniance): antibody 0.5 nM equilibrated with hFA-1 in solution, then added to immobilised hFA-1. (An ELISA detects its analyte on a solid surface through an enzyme-linked reagent.)

B1: mouse anti-hDlk-1 monoclonal antibody clone DI-2-14 (antibody, V domains shown)
VH: EVQLQQSGAELVKPGASVKLSCTASGFNIRDTYIHWVKQRPEQGLEWIGRIDPPNGNLKYDPKFQGKATITADTSSNTAYLQFSSLTSEDTAVYYCARSDGYSFAYWGQGTLVTVSA
VL: DIVMTQAAPSVPVTPGESVSISCRSSKSLLHSNGNTYLYWFLQRPGQSPQLLIYRMSNLASGVPDRFSGSGSGTAFTLRISRVEAEDVGVYYCMQHVEYPFTFGSGTKLEIK
notes: also called mouse DI-2-14 antibody; clone DI-2-14 (mouse IgG1)
Broadly, the EC50 is the concentration that produces a half-maximal response. For orientation: Kd means the free concentration of one partner at which half of the binding sites on the other are occupied at equilibrium, for simple one-to-one binding. Regarding B1, the binding result in test [1] and in test [2] was “no binding” throughout. The concentration for a half-maximal effect (EC50) in test [3] is below 0.01 µg/mL. For the same molecule, the Kd in test [4] was 4.02 nM and 9.26 nM.

B2: humanized anti-hDlk-1 monoclonal antibody HuDI-2-14-1 (antibody, V domains shown)
VH: QVQLVQSGAEVKKPGSSVKVSCKASGFNIRDTYIHWVRQAPGQGLEWIGRIDPPNGNLKYDPKFQGKATITADTSTSTAYMEFSSLRSEDTAVYYCARSDGYSFAYWGQGTLVTVSS
VL: DIVMTQSPLSLPVTPGEPASISCRSSKSLLHSNGNTYLYWFLQKPGQSPQLLIYRMSNLASGVPDRFSGSGSGTAFTLKISRVEAEDVGVYYCMQHVEYPFTFGQGTKVEIK
notes: also called HuDI-2-14-1 IgG1/κ
In the case of B2, the EC50 in test [3] was below 0.01 µg/mL. For the same molecule, the Kd in test [4] is 2.8 nM.

B3: mouse-human chimeric DI-2-14 antibody (ChDI-2-14) (antibody, V domains shown)
VH: EVQLQQSGAELVKPGASVKLSCTASGFNIRDTYIHWVKQRPEQGLEWIGRIDPPNGNLKYDPKFQGKATITADTSSNTAYLQFSSLTSEDTAVYYCARSDGYSFAYWGQGTLVTVSA
VL: DIVMTQAAPSVPVTPGESVSISCRSSKSLLHSNGNTYLYWFLQRPGQSPQLLIYRMSNLASGVPDRFSGSGSGTAFTLRISRVEAEDVGVYYCMQHVEYPFTFGSGTKLEIK
notes: also called DI-2-14 IgG1/κ
Take B3: the EC50 in test [3] was below 0.01 µg/mL. In test [4], the Kd turned out to be 3.4 nM.

B4: humanized anti-hDlk-1 monoclonal antibody HuDI-2-14-2 (antibody, V domains shown)
VH: QVQLVQSGAEVKKPGSSVKVSCKASGFNIRDTYIHWVRQAPGQGLEWIGRIDPPNGNLKYDPKFQGKATITADTSTSTAYMELSSLRSEDTAVYYCARSDGYSFAYWGQGTLVTVSS
VL: DIVMTQSPLSLPVTPGEPASISCRSSKSLLHSNGNTYLYWFLQKPGQSPQLLIYRMSNLASGVPDRFSGSGSGTAFTLKISRVEAEDVGVYYCMQHVEYPFTFGQGTKVEIK
notes: also called HuDI-2-14-2 IgG1/κ
With B4, the concentration for a half-maximal effect (EC50) in test [3] was below 0.01 µg/mL. Moreover, the Kd in test [4] turned out to be 3.1 nM.
